Source: publication PMC10036606

Biological target: CD58 extracellular domain (human) (UniProt P19256)
Sequence of UniProt P19256 (P19256 29-215): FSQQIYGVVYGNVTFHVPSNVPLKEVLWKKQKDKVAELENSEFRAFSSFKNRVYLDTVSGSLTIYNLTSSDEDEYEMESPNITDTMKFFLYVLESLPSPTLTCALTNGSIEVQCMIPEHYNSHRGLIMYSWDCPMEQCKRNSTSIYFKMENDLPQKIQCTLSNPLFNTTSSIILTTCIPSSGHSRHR

- glycocalyx exclusion on the SLB2 (reduction in fluorescence, contact tightness) in regions of CD58 accumulation under J8-GECI cells, against 20% in regions of ICAM-1 accumulation: 45%
Substance: CD2 (from UniProt P06729 25-351) (receptor)
